Data reported in the MegaScale stability set (Tsuboyama et al. 2023).

B1: r4_43_TrROS_Hall (parent)
chain: DLVTIKVPLENLEEIKKAAEKAGFKIVSISYDKENKEVTIVIEKKK

Variants of: B1
Test: folding stability dG (cDNA display proteolysis); higher = more stable
Details: PBS, room temperature

Folding stability dG [kcal/mol], by site and new letter:
T39: A 3.4; D 3.21; C 3.2; E 3.22; F 3.69
G23: K 3.73; M 3.46; C 3.84; S 3.28; H 3.79; D 2.75; W 3.67; T 3.23; L 3.52; P 2.92; F 3.61; V 2.78; E 3.18; R 3.52; Q 3.51; I 2.98; Y 3.44; A 3.54; N 3.44
D32: R 2.93; P 2.77; Q 3.56; F 3.67; T 3.81; G 3.82; M 3.48; H 3.67; L 3.21; S 4.21; E 3.62; A 3.54; W 3.62; K 3.04; C 3.85; I 3.39; V 3.33; N 4.06; Y 3.65
F24: R 2.77; D 2.47; W 3.68; Y 3.53; S 2.69; A 3.19; I 2.52; M 2.55; Q 2.5; H 2.73; K 2.51; L 2.8; N 2.56; V 2.74; T 2.88; P 1.47; G 2.74; E 2.85
I26: N 1.35; T 2.76; P 1.96; E 1.75; K 1.31; V 3.41; C 3; R 1.21; W 3.12; H 1.53; G 0.98; Y 2.52; A 2.13; D 1.25; Q 2.02; M 3.31; L 3.59; F 3.31; S 1.81
S30: A 3.4; T 3.66; Y 3.83; G 3.22; P 0.669; H 3.68; W 3.71; I 3.66; F 3.9; C 3.53; E 3.4; D 3.5; M 3.49; K 3.59; Q 3.47; V 3.96; R 3.62; L 3.74; N 3.79
A22: D 3.13; V 3.75; Q 3.62; W 4.33; R 3.68; C 3.79; I 3.67; G 3.52; H 3.64; P 2.38; S 3.56; K 3.58; M 3.68; L 3.66; N 3.54; T 3.33; E 3.2; Y 3.95; F 3.67
S28: G 3.53; D 3.02; A 3.71; N 3.42; E 3.18; K 3.52; C 3.69; R 3.88; Y 3.88; W 3.88; L 3.18; P 2.51; Q 3.48; T 3.48; I 3.39; M 3.28; F 3.77; V 3.22
K25: I 3.56; C 3.06; W 3.57; G 2.89; F 3.9; P 2.05; M 3.63; R 4.04; D 2.73; H 3.2; V 3.08; E 3.04; T 3.58; A 3.12; S 3.58; Y 3.88; L 3.05; N 3.34; Q 3.29
E34: T 3.77; C 3.63; W 3.96; Y 3.81; Q 3.89; V 3.72; H 3.92; I 3.88; L 4.04; G 3.8; A 3.48; D 3.75; M 3.74; K 3.83; R 3.84; P 3.68; F 3.67; N 3.77; S 3.86
N35: V 3.17; Q 3.54; S 3.55; P 3.2; G 3.61; F 3.5; R 3.98; I 3.52; E 3.47; M 3.93; D 3.73; H 3.54; L 3.47; Y 3.72; W 3.75; T 3.4; A 3.24; K 3.17
Y31: H 3.41; A 3.06; D 2.58; W 3.55; C 3.37; Q 3.23; R 3.39; E 3.29; V 3.47; N 2.95; K 3.34; S 2.83; F 3.3; P 2.97; M 3.19; G 2.76; L 3.12; T 3.15; I 3.27
V38: Q 1.74; S 3.12; F 3.57; P 1.79; T 3.23; C 3.57; W 4.33; G 3.18; L 3.71; E 0.699; M 3.43; I 3.66; Y 4.2; D 0.46; N 2.11; R 1.31; K 1.02; H 2.85; A 3.79
V27: Y 4.35; F 3.87; G 2.59; S 3.35; R 3.96; I 3.57; C 3.64; A 3.48; H 3.96; D 2.75; Q 3.48; T 3.77; K 3.96; M 3.99; N 3.24; W 4.34; P 1.89; E 2.88; L 3.51
K36: S 3.46; P 3.39; G 3.64; A 3.57; M 3.22; F 3.48; R 3.88; Y 3.61; L 3.71; I 3.54; W 3.66; E 3.22; N 3.51; H 3.4; D 3.28; Q 3.48; C 3.19; V 3.32; T 3.48
K21: L 3.57; M 4.03; N 3.42; P 2.74; S 3.93; R 4.07; W 4.37; V 3.93; Y 4.25; Q 3.9; T 3.9
I29: T 3.56; Y 4.25; H 2.76; V 3.67; N 1.97; L 3.85; E 3.18; G 1.61; S 2.98; R 2.47; W 3.93; A 3.16; F 4.07; M 3.79; Q 3.28; K 2.44; D 1.72
E37: Y 3.9; V 4.14; D 3.49; C 3.8; G 3.72; P 2.62; T 3.88; M 3.64; R 3.53; L 3.62; F 3.93; Q 3.59; N 3.62; H 3.86; W 3.92; S 3.81; I 3.85; A 3.75; K 3.45
K33: V 3.73; A 3.49; W 3.76; D 3.11; L 3.8; M 3.72; Y 3.42; R 3.93; T 3.41; P 2.94; G 3.28; Q 3.83; F 3.61; C 3.44; H 3.73; E 3.43; I 3.85; S 3.5; N 3.74
